{
  "source": "patent US20080023859A1",
  "about": "“Glycopeptides and Temperature-Responsive Micelles” (Toagosei Co., Ltd., priority 2003, published 2008)",
  "experiment": "Measurement of micelle formation by dynamic light scattering (particle diameter)",
  "format": "physicochemical",
  "details": "DLS in solution at various temperatures",
  "description": "The micelle formation was observed by measuring the particle diameter of glycopeptides using dynamic light scattering (DLS; HK-6600 manufactured by Otsuka Electronics Co., Ltd.).\nFor the solution of Compound 1, the temperature was varied between a temperature range of 15° C. to 35° C. for 15 minutes, the temperature variation was repeated, and the particle diameters were measured at 15° C. and 35° C..",
  "data": [
    {"substance": "NH2-Val-Pro-Gly-Val-Gly-Val-Pro-Gly-Val-Gly-OH (H-VPGVGVPGVG-OH) [reference peptide molecule]", "values": [
      {"measurement": "particle diameter of aggregate (in words)", "value": "very large particle diameter"}
    ]}
  ]
}
